Measurements published in article PMC9312489, “Tertiary and Quaternary Structure Organization in GMP Synthetases: Implications for Catalysis” (Biomolecules, 2022).

Target: the molecule itself
Assay: SAXS; samples in solution at ~12 mg/mL, beamline BM29 (ESRF), ATSAS analysis, ab initio shapes

B1: Native Plasmodium falciparum GMP synthetase (PfGMPSwt) (enzyme, UniProt Q8IJR9 1-555, looked up)
chain: MEGEEYDKILVLNFGSQYFHLIVKRLNNIKIFSETKDYGVELKDIKDMNIKGVILSGGPYSVTEAGSPHLKKEVFEYFLEKKIPIFGICYGMQEIAVQMNGEVKKSKTSEYGCTDVNILRNDNINNITYCRNFGDSSSAMDLYSNYKLMNETCCLFENIKSDITTVWMNHNDEVTKIPENFYLVSSSENCLICSIYNKEYNIYGVQYHPEVYESLDGELMFYNFAYNICKCKKQFDPIRYHELELKNIEKYKHDHYVIAAMSGGIDSTVAAAYTHKIFKERFFGIFIDNGLLRKNEAENVYTFLKSTFPDMNITKIDASENFLSNLQGVTDPEQKRKIIGKLFIEEFEKAVNNIDIDINKTFLLQGTLYPDIIESKCSKNLSDTIKTHHNVGGLPKNLKFKLFEPFKYLFKDDVKTLSRELNLPEEITNRHPFPGPGLAIRVIGEINKHKLNILREVDDIFINDLKQYGLYNQISQAFAVLLSSKSVGVRGDARSYDYVCVLRAVKTSSFMTANWYQIPYDILDKITTRILSEVKGVNRILYDVSSKPPATIEFE
notes: GMP synthetase of Plasmodium falciparum, native gene PF10_0123 (PlasmoDB); also called native enzyme; wild-type enzyme; source: E. coli (pQE30PfGMPS construct), purified (HisTrap HP, Superdex 200 SEC)
For B1, the “stoichiometry N” value was 2.

B2: PfGMPS_C89A (enzyme)
chain: MEGEEYDKILVLNFGSQYFHLIVKRLNNIKIFSETKDYGVELKDIKDMNIKGVILSGGPYSVTEAGSPHLKKEVFEYFLEKKIPIFGIAYGMQEIAVQMNGEVKKSKTSEYGCTDVNILRNDNINNITYCRNFGDSSSAMDLYSNYKLMNETCCLFENIKSDITTVWMNHNDEVTKIPENFYLVSSSENCLICSIYNKEYNIYGVQYHPEVYESLDGELMFYNFAYNICKCKKQFDPIRYHELELKNIEKYKHDHYVIAAMSGGIDSTVAAAYTHKIFKERFFGIFIDNGLLRKNEAENVYTFLKSTFPDMNITKIDASENFLSNLQGVTDPEQKRKIIGKLFIEEFEKAVNNIDIDINKTFLLQGTLYPDIIESKCSKNLSDTIKTHHNVGGLPKNLKFKLFEPFKYLFKDDVKTLSRELNLPEEITNRHPFPGPGLAIRVIGEINKHKLNILREVDDIFINDLKQYGLYNQISQAFAVLLSSKSVGVRGDARSYDYVCVLRAVKTSSFMTANWYQIPYDILDKITTRILSEVKGVNRILYDVSSKPPATIEFE
notes: GMP synthetase of Plasmodium falciparum (PF10_0123) with the catalytic Cys89 of the GATase domain mutated to alanine; made with pETPfGMPS as template; this is a point mutant made on the plasmid pETPfGMPS; also called C89A single mutant; single mutant enzyme; source: E. coli BL21-CodonPlus(DE3)-RIL (pETPfGMPS mutant construct), purified (HisTrap HP, Superdex 200 SEC)
With B2 the “stoichiometry N” value was 2.
